Measurements taken from PMC4250932.

Tested on: NC(=O)C1=CN([C@@H]2O[C@H](COP(=O)(O)OP(=O)(O)OC[C@H]3O[C@@H](n4cnc5c(N)ncnc54)[C@H](OP(=O)(O)O)[C@@H]3O)[C@@H](O)[C@H]2O)C=CC1
Test: purified protein
Conditions: varied: cofactor

RmlD (dTDP-6-deoxy-L-lyxo-4-hexulose reductase) (Mycobacterium tuberculosis H37Rv)
Km: 12.5 µM
